Experiments:
[1] = biological target: CoV-2 RBD (N354D) (SARS-CoV-2) (UniProt P0DTC2); assay: ELISA
[2] = biological target: CoV-2 RBD (N354D, D364Y) (SARS-CoV-2) (UniProt P0DTC2); assay: ELISA
[3] = biological target: CoV-2 RBD (V367F) (SARS-CoV-2) (UniProt P0DTC2); assay: ELISA
[4] = biological target: CoV-2 RBD (W436R) (SARS-CoV-2) (UniProt P0DTC2); assay: ELISA
[5] = biological target: CoV-2 S (D614G) (SARS-CoV-2) (UniProt P0DTC2); assay: ELISA
[6] = biological target: CoV-2 S (R683A, R685A) (SARS-CoV-2) (UniProt P0DTC2); assay: ELISA
[7] = biological target: spike of SARS-CoV-2 variant B.1.1.7 (UK) on pseudotype virus (SARS-CoV-2) (UniProt P0DTC2); assay: cell-based or functional assay
[8] = biological target: spike of SARS-CoV-2 variant B.1.351 (South Africa) on pseudotype virus (SARS-CoV-2) (UniProt P0DTC2); assay: cell-based or functional assay
[9] = biological target: spike of SARS-CoV-2 variant B.1.427/B.1.429 (California) on pseudotype virus (SARS-CoV-2) (UniProt P0DTC2); assay: cell-based or functional assay
[10] = biological target: spike of SARS-CoV-2 variant P.1 (Japanese/Brazilian) on pseudotype virus (SARS-CoV-2) (UniProt P0DTC2); assay: cell-based or functional assay

Row | Substance | EC50 [1] | EC50 [2] | EC50 [3] | EC50 [4] | EC50 [5] | EC50 [6] | pseudotype virus neutralization IC50 relative to Wuhan-Hu-1 [7] | pseudotype virus neutralization IC50 relative to Wuhan-Hu-1 [8] | pseudotype virus neutralization IC50 relative to Wuhan-Hu-1 [9] | pseudotype virus neutralization IC50 relative to Wuhan-Hu-1 [10]
1 | IVIG (Gamunex; Grifols) (antibody) | 1240 µg/mL | 1320 µg/mL | 1130 µg/mL | 1240 µg/mL | 1330 µg/mL | 2840 µg/mL |  |  |  | 
2 | rCIG (recombinant coronavirus-2 immune globulin; recombinant anti-coronavirus 19 hyperimmune gammaglobulin) (antibody) | 0.07 µg/mL | 0.08 µg/mL | 0.07 µg/mL | 0.07 µg/mL | 0.05 µg/mL | 0.09 µg/mL | < 6 fold | < 6 fold | < 6 fold | < 6 fold
